T1: MPP5, Q8N3R9
T1 sequence (Q8N3R9 251-346, limits assumed, looked up): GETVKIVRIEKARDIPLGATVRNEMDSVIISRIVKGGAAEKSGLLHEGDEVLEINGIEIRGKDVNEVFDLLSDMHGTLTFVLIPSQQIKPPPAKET

T2: SHANK2, Q9UPX8
T2 sequence (Q9UPX8 621-730, limits assumed, looked up): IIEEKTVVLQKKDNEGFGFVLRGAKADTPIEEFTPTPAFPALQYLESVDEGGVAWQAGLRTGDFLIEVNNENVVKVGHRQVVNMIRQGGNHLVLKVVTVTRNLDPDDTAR

T3: MPDZ_7, O75970
T3 sequence (O75970 1146-1253, limits assumed, looked up): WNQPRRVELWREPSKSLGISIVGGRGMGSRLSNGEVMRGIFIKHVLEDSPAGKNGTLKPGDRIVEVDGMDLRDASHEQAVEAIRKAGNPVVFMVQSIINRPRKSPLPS

T4: INTU, Q9ULD6
T4 sequence (Q9ULD6 180-273, limits assumed, looked up): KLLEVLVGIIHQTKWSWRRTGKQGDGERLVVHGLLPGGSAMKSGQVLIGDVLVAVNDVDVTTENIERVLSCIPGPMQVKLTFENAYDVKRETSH

T5: MAGI2_1, Q86UL8
T5 sequence (Q86UL8 12-111, limits assumed, looked up): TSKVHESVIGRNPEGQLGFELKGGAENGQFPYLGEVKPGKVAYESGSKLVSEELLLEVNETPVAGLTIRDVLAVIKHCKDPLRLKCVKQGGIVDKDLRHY

T6: PDZD2_4, O15018
T6 sequence (O15018 723-823, limits assumed, looked up): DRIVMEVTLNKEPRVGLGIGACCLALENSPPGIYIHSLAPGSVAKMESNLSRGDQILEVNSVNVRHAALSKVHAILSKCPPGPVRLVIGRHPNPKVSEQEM

T7: USH1C_2, Q9Y6N9
T7 sequence (Q9Y6N9 206-303, limits assumed, looked up): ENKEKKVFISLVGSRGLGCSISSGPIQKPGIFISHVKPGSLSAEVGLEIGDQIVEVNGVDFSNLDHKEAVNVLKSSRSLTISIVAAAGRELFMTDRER

T8: PTPN13_4, Q12923
T8 sequence (Q12923 1783-1878, limits assumed, looked up): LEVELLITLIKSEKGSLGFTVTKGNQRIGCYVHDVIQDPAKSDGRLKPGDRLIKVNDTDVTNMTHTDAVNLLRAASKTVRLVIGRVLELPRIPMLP

T9: TJP3_2, O95049
T9 sequence (O95049 190-282, limits assumed, looked up): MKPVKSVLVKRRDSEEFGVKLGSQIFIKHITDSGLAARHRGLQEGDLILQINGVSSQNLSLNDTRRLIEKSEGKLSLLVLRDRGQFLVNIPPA

T10: MPDZ_6, O75970
T10 sequence (O75970 1003-1099, limits assumed, looked up): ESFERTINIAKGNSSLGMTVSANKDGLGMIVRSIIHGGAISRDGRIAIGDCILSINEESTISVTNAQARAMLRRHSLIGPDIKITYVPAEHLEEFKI

T11: PDZD7_2, Q9H5P4
T11 sequence (Q9H5P4 205-303, limits assumed, looked up): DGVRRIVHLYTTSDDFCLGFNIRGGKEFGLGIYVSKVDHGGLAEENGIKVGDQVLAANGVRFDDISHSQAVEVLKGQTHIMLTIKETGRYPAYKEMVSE

T12: NHERF1_2, O14745
T12 sequence (O14745 149-244, limits assumed, looked up): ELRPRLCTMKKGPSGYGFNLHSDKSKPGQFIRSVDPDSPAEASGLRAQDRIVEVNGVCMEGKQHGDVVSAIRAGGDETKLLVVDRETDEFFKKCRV

T13: SYNPO2L, Q9H987
T13 sequence (Q9H987 1-98, limits assumed, looked up): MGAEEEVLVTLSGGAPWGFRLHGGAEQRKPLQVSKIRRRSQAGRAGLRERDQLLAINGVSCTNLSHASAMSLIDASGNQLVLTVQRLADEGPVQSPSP

T14: APBA3_2, O96018
T14 sequence (O96018 480-570, limits assumed, looked up): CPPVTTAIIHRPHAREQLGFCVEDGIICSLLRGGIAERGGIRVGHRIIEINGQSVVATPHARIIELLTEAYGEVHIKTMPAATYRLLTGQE


Experiments:
Experiment in all cases: holdup assay
Design in all cases: key: below the threshold = too weak to quantify, mostly under pKd 3.1 to 4
Settings in all cases: plain residues with an end cap or a label only (N-terminal biotin on a linker: ttds)
[1] = target: T1, MPP5, Q8N3R9
[2] = target: DLG5_2, Q8TDM6
[3] = target: T2, SHANK2, Q9UPX8
[4] = target: MAGI3_4, Q5TCQ9
[5] = target: PDLIM4, P50479
[6] = target: T3, MPDZ_7, O75970
[7] = target: TJP1_1, Q07157
[8] = target: AHNAK2, Q8IVF2
[9] = target: T4, INTU, Q9ULD6
[10] = target: SDCBP_1, O00560
[11] = target: CNKSR3, Q6P9H4
[12] = target: T5, MAGI2_1, Q86UL8
[13] = target: T6, PDZD2_4, O15018
[14] = target: T7, USH1C_2, Q9Y6N9
[15] = target: T8, PTPN13_4, Q12923
[16] = target: T9, TJP3_2, O95049
[17] = target: T10, MPDZ_6, O75970
[18] = target: T11, PDZD7_2, Q9H5P4
[19] = target: T12, NHERF1_2, O14745
[20] = target: T13, SYNPO2L, Q9H987
[21] = target: MAGIX, Q9H6Y5
[22] = target: T14, APBA3_2, O96018

Chain of TJP1_1, Q07157 (Q07157 18-120): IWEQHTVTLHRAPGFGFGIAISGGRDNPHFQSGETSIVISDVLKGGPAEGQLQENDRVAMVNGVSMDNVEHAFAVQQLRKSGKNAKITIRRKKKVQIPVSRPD
Chain of CNKSR3, Q6P9H4 (Q6P9H4 203-303): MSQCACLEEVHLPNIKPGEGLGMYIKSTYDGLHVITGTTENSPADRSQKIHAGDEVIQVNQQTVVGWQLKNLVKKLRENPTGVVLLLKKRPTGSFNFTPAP
Chain of AHNAK2, Q8IVF2 (Q8IVF2 108-193): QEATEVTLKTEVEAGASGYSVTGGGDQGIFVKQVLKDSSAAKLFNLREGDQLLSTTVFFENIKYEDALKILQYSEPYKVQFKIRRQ
Chain of MAGIX, Q9H6Y5 (Q9H6Y5 118-211): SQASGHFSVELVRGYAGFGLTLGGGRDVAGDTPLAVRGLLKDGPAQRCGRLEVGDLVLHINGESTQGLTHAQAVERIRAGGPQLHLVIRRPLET
Chain of DLG5_2, Q8TDM6 (Q8TDM6 714-800): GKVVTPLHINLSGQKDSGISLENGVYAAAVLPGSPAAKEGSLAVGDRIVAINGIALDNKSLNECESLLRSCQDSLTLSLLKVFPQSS
Chain of PDLIM4, P50479 (P50479 1-83): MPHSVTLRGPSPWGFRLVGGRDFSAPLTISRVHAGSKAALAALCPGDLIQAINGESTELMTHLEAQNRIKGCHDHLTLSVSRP
Chain of SDCBP_1, O00560 (O00560 111-198): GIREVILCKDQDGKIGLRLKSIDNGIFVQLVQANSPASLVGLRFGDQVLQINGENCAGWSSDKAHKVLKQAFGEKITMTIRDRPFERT
Chain of MAGI3_4, Q5TCQ9 (Q5TCQ9 716-815): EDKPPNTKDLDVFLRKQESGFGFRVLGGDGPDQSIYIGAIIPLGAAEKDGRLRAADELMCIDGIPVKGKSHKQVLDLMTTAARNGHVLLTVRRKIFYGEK

Binder	pKd [1]	pKd [2]	pKd [3]	pKd [4]	pKd [5]	pKd [6]	pKd [7]	pKd [8]	pKd [9]	pKd [10]	pKd [11]	pKd [12]	pKd [13]	pKd [14]	pKd [15]	pKd [17]	pKd [18]	pKd [19]	pKd [20]	pKd [21]	other results
KLVIKTETTV [RASSF6, Q6ZTQ3]	below the threshold	4.33	below the threshold	below the threshold	4.09	below the threshold	below the threshold	below the threshold	below the threshold	below the threshold	below the threshold	below the threshold	below the threshold	below the threshold	below the threshold	below the threshold	below the threshold	below the threshold	below the threshold	below the threshold	pKd [16]: below the threshold
SGGKRKETLV [NET1, Q7Z628]	below the threshold	4.58		below the threshold	below the threshold	4.35	3.89		below the threshold	below the threshold	below the threshold	below the threshold	below the threshold		below the threshold	below the threshold	below the threshold	below the threshold	below the threshold	below the threshold	pKd [22]: below the threshold
SSIDLWETAL [SLC15A5, A6NIM6]	below the threshold	below the threshold	5.87	below the threshold	below the threshold	6.09	below the threshold	below the threshold	below the threshold	below the threshold	below the threshold	below the threshold	below the threshold	below the threshold	below the threshold	below the threshold	below the threshold	below the threshold	below the threshold	below the threshold	pKd [22]: below the threshold; pKd [16]: below the threshold
PPRQRSETQV [HPV82-E6, Q9IR59]	below the threshold	below the threshold	below the threshold	below the threshold	below the threshold	below the threshold	below the threshold	below the threshold		below the threshold	below the threshold	below the threshold	4.53	below the threshold	below the threshold	below the threshold	below the threshold	below the threshold	below the threshold	below the threshold	pKd [22]: below the threshold; pKd [16]: below the threshold
SRSRRRETAL [HPV33-E6, P06427]	below the threshold	4.78	below the threshold	below the threshold	below the threshold	below the threshold	below the threshold	below the threshold	4.54	below the threshold	below the threshold	below the threshold	below the threshold	below the threshold	below the threshold	below the threshold	4.42	below the threshold	below the threshold	below the threshold	pKd [22]: 4.28; pKd [16]: below the threshold
SHSSKGETAV [FZD7, O75084]	below the threshold	below the threshold	below the threshold	below the threshold	below the threshold	below the threshold	below the threshold	4.41	below the threshold	below the threshold	below the threshold	4.39	below the threshold	below the threshold	below the threshold	below the threshold	below the threshold	below the threshold	below the threshold	below the threshold	pKd [22]: below the threshold; pKd [16]: below the threshold

Source: paper PMC9482650, “Quantitative fragmentomics allow affinity mapping of interactomes” (Nature Communications, 2022)
